The values below come from patent publication US20240115729A1, “COMPOSITIONS AND METHODS FOR TARGETED ANTIFIBROTIC THERAPY IN CHRONIC PANCREATITIS” (University of Virginia Patent Foundation, priority 2021, published 2024).

Holding throughout (assay): IF colocalization (JACoP) of VT680 phage with marker, CP mouse pancreas sections
The target of experiment [1] is CD31 (mouse) (UniProt Q08481).
The target of experiment [2] is F4/80 (mouse) (UniProt Q61549).
Experiment [3] deals with carboxypeptidase A1 (CPA1) (mouse) (UniProt Q7TPZ8).
Sequence of UniProt Q7TPZ8 (Q7TPZ8 111-419): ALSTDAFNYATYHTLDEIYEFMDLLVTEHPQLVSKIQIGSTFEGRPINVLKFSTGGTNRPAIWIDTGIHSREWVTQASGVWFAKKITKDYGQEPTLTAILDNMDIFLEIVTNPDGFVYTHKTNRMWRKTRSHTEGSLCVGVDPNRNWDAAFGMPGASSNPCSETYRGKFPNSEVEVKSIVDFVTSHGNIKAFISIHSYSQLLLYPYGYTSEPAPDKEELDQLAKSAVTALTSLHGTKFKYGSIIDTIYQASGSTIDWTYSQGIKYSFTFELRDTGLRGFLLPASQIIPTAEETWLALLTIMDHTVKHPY
Experiment [4] has as its target collagen IIIa (mouse) (UniProt P08121).
Sequence of UniProt P08121 (P08121 155-1219): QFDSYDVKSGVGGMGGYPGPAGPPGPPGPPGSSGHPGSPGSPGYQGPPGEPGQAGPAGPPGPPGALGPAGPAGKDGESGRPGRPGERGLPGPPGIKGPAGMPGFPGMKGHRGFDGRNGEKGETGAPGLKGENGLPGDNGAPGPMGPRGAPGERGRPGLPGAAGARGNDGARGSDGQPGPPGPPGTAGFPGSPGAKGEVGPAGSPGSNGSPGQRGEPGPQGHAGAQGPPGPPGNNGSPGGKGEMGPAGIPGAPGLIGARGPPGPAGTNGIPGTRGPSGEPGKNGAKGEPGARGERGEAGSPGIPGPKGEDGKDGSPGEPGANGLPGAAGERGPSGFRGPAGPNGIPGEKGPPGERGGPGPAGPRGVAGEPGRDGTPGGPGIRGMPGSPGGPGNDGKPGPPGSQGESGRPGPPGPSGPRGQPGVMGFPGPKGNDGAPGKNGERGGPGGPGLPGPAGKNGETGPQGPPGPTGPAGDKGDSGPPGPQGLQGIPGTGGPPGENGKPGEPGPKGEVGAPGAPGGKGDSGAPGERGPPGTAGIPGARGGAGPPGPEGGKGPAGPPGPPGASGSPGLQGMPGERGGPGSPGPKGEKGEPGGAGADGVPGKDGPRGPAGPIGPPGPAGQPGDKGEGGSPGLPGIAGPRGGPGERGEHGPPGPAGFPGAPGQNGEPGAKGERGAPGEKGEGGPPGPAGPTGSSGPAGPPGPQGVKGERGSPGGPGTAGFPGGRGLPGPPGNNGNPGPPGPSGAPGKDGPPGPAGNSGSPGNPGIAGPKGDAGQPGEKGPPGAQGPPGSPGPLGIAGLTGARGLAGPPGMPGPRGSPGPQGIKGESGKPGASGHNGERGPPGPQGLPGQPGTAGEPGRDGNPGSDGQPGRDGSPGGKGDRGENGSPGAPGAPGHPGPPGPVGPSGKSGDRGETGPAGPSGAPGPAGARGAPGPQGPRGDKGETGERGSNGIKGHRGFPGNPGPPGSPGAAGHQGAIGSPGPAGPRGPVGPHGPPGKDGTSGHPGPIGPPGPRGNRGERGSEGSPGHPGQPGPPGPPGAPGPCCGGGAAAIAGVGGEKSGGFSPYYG
The target in experiment [5] is cytokeratin 7 (CK-7) (mouse) (UniProt Q9DCV7).
Sequence of UniProt Q9DCV7 (Q9DCV7 2-457): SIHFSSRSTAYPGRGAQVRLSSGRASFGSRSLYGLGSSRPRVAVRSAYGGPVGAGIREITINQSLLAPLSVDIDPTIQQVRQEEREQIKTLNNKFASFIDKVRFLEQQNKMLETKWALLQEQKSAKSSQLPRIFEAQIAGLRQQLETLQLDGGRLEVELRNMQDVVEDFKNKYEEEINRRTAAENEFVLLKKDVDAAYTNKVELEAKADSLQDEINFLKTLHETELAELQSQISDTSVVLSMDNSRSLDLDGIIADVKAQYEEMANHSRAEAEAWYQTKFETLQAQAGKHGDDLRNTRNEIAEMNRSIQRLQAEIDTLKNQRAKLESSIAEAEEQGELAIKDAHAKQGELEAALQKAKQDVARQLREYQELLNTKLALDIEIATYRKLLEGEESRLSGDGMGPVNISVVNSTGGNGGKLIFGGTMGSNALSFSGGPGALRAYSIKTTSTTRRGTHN

Sequence of UniProt Q08481 (Q08481 18-727): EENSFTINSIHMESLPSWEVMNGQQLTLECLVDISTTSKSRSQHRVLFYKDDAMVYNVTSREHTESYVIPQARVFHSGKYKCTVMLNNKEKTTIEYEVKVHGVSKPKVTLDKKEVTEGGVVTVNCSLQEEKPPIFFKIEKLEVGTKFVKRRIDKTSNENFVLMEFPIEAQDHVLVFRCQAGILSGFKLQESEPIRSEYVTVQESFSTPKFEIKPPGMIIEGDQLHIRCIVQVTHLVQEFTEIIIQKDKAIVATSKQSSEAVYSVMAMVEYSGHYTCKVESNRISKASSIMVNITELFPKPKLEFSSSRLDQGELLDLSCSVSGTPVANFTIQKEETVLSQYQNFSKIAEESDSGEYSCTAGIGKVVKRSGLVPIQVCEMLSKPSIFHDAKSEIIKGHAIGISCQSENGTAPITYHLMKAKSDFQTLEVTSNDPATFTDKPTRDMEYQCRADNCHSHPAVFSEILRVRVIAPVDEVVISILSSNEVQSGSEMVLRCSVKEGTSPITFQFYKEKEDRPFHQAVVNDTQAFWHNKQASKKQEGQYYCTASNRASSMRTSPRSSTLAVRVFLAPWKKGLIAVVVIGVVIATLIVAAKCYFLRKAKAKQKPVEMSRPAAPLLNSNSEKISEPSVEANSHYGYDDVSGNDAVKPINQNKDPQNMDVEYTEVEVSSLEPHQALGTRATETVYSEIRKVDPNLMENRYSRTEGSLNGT
Sequence of UniProt Q61549 (Q61549 28-931): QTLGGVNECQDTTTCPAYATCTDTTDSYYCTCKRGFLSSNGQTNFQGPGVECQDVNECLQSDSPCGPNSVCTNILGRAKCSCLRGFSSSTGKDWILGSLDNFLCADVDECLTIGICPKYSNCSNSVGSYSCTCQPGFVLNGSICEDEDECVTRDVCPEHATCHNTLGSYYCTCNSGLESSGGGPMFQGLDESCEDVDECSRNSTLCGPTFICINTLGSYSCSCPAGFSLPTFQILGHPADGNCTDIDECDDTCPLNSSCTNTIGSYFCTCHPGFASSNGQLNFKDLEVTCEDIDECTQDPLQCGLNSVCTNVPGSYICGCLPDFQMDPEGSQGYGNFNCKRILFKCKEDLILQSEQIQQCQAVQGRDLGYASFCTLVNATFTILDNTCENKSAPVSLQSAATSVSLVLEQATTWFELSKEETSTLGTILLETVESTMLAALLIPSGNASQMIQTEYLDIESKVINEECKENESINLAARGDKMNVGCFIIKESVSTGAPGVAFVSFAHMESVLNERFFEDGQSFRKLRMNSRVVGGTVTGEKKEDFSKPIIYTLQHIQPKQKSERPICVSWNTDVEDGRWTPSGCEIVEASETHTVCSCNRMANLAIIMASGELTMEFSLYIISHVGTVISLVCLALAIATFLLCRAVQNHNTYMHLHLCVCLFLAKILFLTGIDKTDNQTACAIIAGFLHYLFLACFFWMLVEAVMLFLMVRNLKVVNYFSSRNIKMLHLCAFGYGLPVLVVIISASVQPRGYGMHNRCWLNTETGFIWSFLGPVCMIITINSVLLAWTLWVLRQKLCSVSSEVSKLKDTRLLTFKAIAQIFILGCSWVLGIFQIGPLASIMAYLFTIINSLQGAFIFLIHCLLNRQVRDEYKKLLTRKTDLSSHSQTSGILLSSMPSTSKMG

For “SLTNSSF (SEQ ID NO: 27) phage clone (peptide)”, the mean Manders' correlation coefficient (MCC), fraction of phage overlapping cell marker in experiment [1] came out at 0.13; in experiment [2] it was 0.8; in experiment [3] it was 0.22; in experiment [4], 0.33; in experiment [5] it was 0.11.
